From doi:10.1101/2025.05.22.655486 (bioRxiv, 2025)

T1: Ectodomain of Arabidopsis thaliana MIK2, TwinStrep- and HA-tagged (Arabidopsis thaliana, UniProt Q8VZG8 44-709)
T1 sequence (looked up): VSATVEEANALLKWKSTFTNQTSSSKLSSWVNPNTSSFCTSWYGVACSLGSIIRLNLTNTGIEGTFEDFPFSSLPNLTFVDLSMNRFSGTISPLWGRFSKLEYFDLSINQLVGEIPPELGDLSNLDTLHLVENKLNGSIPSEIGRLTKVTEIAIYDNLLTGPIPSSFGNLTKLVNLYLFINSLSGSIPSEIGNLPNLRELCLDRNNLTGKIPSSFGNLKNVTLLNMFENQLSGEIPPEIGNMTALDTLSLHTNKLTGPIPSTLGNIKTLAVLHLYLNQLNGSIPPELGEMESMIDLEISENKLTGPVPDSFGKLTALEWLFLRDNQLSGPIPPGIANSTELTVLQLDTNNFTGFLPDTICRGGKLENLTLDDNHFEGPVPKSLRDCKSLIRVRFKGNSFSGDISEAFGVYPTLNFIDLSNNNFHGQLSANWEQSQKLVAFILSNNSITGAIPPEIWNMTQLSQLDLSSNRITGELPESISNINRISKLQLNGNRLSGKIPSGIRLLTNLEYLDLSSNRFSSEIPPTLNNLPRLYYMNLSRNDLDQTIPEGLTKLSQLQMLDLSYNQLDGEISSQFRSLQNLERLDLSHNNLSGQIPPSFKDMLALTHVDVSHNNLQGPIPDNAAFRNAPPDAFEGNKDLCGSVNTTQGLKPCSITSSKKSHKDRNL


Experiments:
[1] = target: T1, Ectodomain of Arabidopsis thaliana …; assay: ligand-depletion assay
[2] = target: Ectodomain of Arabidopsis thaliana FLAGELLIN-SENSING 2, TwinStrep- and HA-tagged (Arabidopsis thaliana, UniProt Q9FL28 24-806); assay: ligand-depletion assay
Chain of Ectodomain of Arabidopsis thaliana FLAGELLIN-SENSING 2, TwinStrep- and HA-tagged (Q9FL28 24-806): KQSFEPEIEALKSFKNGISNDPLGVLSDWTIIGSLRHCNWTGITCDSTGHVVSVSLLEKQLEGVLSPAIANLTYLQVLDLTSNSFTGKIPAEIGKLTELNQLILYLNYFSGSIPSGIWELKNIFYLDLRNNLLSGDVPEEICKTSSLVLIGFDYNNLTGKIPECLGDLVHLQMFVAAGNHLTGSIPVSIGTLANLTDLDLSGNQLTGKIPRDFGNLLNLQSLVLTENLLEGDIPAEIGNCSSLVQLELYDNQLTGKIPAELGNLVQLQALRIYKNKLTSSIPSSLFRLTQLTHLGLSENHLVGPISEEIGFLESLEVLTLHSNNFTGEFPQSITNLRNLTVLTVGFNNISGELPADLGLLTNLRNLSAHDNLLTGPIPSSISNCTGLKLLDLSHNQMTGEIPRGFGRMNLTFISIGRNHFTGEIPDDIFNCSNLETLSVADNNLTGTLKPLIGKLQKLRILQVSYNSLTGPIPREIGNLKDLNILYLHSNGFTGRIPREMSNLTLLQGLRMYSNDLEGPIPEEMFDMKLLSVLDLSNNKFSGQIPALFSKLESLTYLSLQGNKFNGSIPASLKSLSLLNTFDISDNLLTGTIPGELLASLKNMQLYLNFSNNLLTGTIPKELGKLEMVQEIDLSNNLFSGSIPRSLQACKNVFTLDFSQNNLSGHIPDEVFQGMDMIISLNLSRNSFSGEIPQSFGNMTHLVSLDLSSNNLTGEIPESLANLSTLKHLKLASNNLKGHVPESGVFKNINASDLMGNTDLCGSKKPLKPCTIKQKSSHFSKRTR

Row | Binder | binding result [1] | binding result [2]
1 | PVRSSQSSQAGGR [AtSCOOP12 (SERINE-RICH ENDOGENOUS PEPTIDE 12)] | binds | –
2 | QRLSTGSRINSAKDDAAGLQIA [flg22 peptide] | – | binds
